Laboratory results reported in patent publication US8901076 (Molecular Partners, dated 2014).

Target: VEGF-A165 (UniProt P15692 27-191)
Assay: cell-based or functional assay

VEGF-A165, sequence (P15692 other isoform, or with tags, fused parts or gaps): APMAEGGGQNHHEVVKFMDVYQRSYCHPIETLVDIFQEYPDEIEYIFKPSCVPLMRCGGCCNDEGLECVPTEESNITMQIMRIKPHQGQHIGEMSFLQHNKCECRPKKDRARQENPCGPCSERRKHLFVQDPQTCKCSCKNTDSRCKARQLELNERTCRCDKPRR

IC50 (read off the curve); sprout length of VEGF-A165 stimulated HUVEC spheroids: ~30 pM
B1: DARPin #30 (designed binder)
chain: GSDLGKKLLEAARAGQDDEVRILMANGADVNTADSTGWTPLHLAVPWGHLEIVEVLLKYGADVNAKDFQGWTPLHLAAAIGHQEIVEVLLKNGADVNAQDKFGKTAFDISIDNGNEDLAEILQKAA
